Earlier results in article PMC6008586, “Analysis of transition state mimicry by tight binding aminothiazoline inhibitors provides insight into catalysis by human O-GlcNAcase” (Chemical Science, 2016).

Target: Asp174 (UniProt position 174, FALLFDDIDHN)
Experiment: kinetics
Details: the article refers the ionisation state to the resting enzyme; free-enzyme versus enzyme-substrate complex is not specified

Substance: O-GlcNAcase (OGA, protein O-GlcNAc hydrolase, GH84) (Homo sapiens)
- pKa: 5.2
